According to paper PMC10786891, “Massively parallel profiling of RNA-targeting CRISPR-Cas13d”:

T1: EsCas13d, nuclease-dead (Eubacterium siraeum, UniProt B0MS50, R295A;H300A;R849A;H854A)
T1 sequence: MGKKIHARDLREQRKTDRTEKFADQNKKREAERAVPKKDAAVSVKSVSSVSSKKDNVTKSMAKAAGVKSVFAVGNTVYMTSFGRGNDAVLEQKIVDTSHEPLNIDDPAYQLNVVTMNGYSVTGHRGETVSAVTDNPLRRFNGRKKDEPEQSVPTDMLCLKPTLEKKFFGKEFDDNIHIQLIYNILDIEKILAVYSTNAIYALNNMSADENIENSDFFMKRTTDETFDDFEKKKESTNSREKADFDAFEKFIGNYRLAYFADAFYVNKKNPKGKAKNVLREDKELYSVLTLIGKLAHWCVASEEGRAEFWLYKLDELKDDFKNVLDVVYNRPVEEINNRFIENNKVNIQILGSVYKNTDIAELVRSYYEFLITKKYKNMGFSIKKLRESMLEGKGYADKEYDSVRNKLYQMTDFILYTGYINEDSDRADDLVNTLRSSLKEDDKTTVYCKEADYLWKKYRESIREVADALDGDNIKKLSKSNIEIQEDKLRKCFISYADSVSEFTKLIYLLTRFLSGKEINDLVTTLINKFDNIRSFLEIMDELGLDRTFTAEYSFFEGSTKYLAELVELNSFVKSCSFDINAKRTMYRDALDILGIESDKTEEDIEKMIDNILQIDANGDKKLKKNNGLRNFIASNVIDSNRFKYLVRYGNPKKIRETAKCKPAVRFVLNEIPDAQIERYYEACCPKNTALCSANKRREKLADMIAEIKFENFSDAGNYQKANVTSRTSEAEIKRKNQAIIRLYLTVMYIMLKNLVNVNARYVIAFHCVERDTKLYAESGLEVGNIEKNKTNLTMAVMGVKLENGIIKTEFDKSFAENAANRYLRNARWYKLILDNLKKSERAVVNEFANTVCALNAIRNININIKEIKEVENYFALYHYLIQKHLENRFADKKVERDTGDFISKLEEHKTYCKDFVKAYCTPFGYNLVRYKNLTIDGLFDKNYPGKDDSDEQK


Molecular target: T1, EsCas13d, nuclease-dead
Test: crRNA (strand 1, pre-loaded); Mg2+; 40 mM Tris-HCl pH 7.5, 150 mM NaCl, 6 mM MgCl2, 1 mM DTT, 0.1% Tween-20, 0.2 mg/ml BSA; 25 C; 10 min per concentration, then washed
Conditions: tags: His6-TwinStrep-SUMO cleaved; N-terminal SNAP kept (SNAP-Surface 488); label: 3' end held by stalled T7 RNA polymerase

| Binder | Kd |
| --- | --- |
| target 1 insG 3' of 9,insG 3' of 3 (mixed) RNA 1: CACCCGUGCAAAAAUGCAGGGGUCUAAAACUGAGCGGAUAACCUCUCUAUGG RNA 2: GGGAAUGGAUCCACAUCUACGAAUUCGUACCAUAGAGAGGUUAGUCCGCUGCACCGAGAUCGGAAGAGCACACGU | 10.3 ± 0.5 nM |
| target 1 del7,del14 (mixed) RNA 1: CACCCGUGCAAAAAUGCAGGGGUCUAAAACUGAGCGGAUAACCUCUCUAUGG RNA 2: GGGAAUGGAUCCACAUCUACGAAUUCGUACCAUAGAGGGUUAUCGCUCACCGAGAUCGGAAGAGCACACGU | 18 ± 0.6 nM |
| target 1 A9C,C22A (mixed) RNA 1: CACCCGUGCAAAAAUGCAGGGGUCUAAAACUGAGCGGAUAACCUCUCUAUGG RNA 2: GGGAAUGGAUCCACAUCUACGAAUUCGUAACAUAGAGAGGUUCUCCGCUCACCGAGAUCGGAAGAGCACACGU | 47 ± 9 nM |
| target 1 U3A,U8C (mixed) RNA 1: CACCCGUGCAAAAAUGCAGGGGUCUAAAACUGAGCGGAUAACCUCUCUAUGG RNA 2: GGGAAUGGAUCCACAUCUACGAAUUCGUACCAUAGAGAGGUUACCCGCACACCGAGAUCGGAAGAGCACACGU | 7.6 ± 0.7 nM |
| target 1 A1G,U11C (mixed) RNA 1: CACCCGUGCAAAAAUGCAGGGGUCUAAAACUGAGCGGAUAACCUCUCUAUGG RNA 2: GGGAAUGGAUCCACAUCUACGAAUUCGUACCAUAGAGAGGCUAUCCGCUCGCCGAGAUCGGAAGAGCACACGU | 8.4 ± 0.5 nM |
| target 1 insG 3' of 11,insA 3' of 4 (mixed) RNA 1: CACCCGUGCAAAAAUGCAGGGGUCUAAAACUGAGCGGAUAACCUCUCUAUGG RNA 2: GGGAAUGGAUCCACAUCUACGAAUUCGUACCAUAGAGAGGUGUAUCCGCAUCACCGAGAUCGGAAGAGCACACGU | ~63 nM |
| target 1 insC 3' of 18,insC 3' of 8 (mixed) RNA 1: CACCCGUGCAAAAAUGCAGGGGUCUAAAACUGAGCGGAUAACCUCUCUAUGG RNA 2: GGGAAUGGAUCCACAUCUACGAAUUCGUACCAUACGAGAGGUUAUCCCGCUCACCGAGAUCGGAAGAGCACACGU | 44.9 ± 3 nM |
| target 1 insA 3' of 19,insU 3' of 9 (mixed) RNA 1: CACCCGUGCAAAAAUGCAGGGGUCUAAAACUGAGCGGAUAACCUCUCUAUGG RNA 2: GGGAAUGGAUCCACAUCUACGAAUUCGUACCAUAAGAGAGGUUAUUCCGCUCACCGAGAUCGGAAGAGCACACGU | 32.5 ± 3.1 nM |
| target 1 insC 3' of 20,insU 3' of 18 (mixed) RNA 1: CACCCGUGCAAAAAUGCAGGGGUCUAAAACUGAGCGGAUAACCUCUCUAUGG RNA 2: GGGAAUGGAUCCACAUCUACGAAUUCGUACCACUAUGAGAGGUUAUCCGCUCACCGAGAUCGGAAGAGCACACGU | 6.12 ± 0.3 nM |
| target 1 insU 3' of 6,insC 3' of 3 (mixed) RNA 1: CACCCGUGCAAAAAUGCAGGGGUCUAAAACUGAGCGGAUAACCUCUCUAUGG RNA 2: GGGAAUGGAUCCACAUCUACGAAUUCGUACCAUAGAGAGGUUAUCCUGCUCCACCGAGAUCGGAAGAGCACACGU | 10.5 ± 0.7 nM |
| target 1 insU 3' of 20,insG 3' of 1 (mixed) RNA 1: CACCCGUGCAAAAAUGCAGGGGUCUAAAACUGAGCGGAUAACCUCUCUAUGG RNA 2: GGGAAUGGAUCCACAUCUACGAAUUCGUACCAUUAGAGAGGUUAUCCGCUCAGCCGAGAUCGGAAGAGCACACGU | 11.8 ± 1.2 nM |
| target 1 insU 3' of 5,insU 3' of 1 (mixed) RNA 1: CACCCGUGCAAAAAUGCAGGGGUCUAAAACUGAGCGGAUAACCUCUCUAUGG RNA 2: GGGAAUGGAUCCACAUCUACGAAUUCGUACCAUAGAGAGGUUAUCCGUCUCAUCCGAGAUCGGAAGAGCACACGU | 13.5 ± 0.6 nM |
| target 1 G5A,U10A (mixed) RNA 1: CACCCGUGCAAAAAUGCAGGGGUCUAAAACUGAGCGGAUAACCUCUCUAUGG RNA 2: GGGAAUGGAUCCACAUCUACGAAUUCGUACCAUAGAGAGGUAAUCCACUCACCGAGAUCGGAAGAGCACACGU | 84 ± 16 nM |
